Kd and dH data for two substances are collected here from article PMC9022993.

The assay addresses human parkin, full-length, affinity tag cleaved (human) (UniProt O60260). In words: ITC; parkin (20 µM in 162 µl) in the cell titrated with the chimera (mG2-Ub 100 µM, CISD1-Ub 212 µM, mG2-pUb 84 µM, CISD1-pUb 106 µM); 18°C or 25°C; 25 mM HEPES or 20 mM Tris, 100 mM NaCl, 250 µM TCEP, pH 7.5 or 8.0; duplicate; single-site model. (In general: ITC needs no label: the signal is the heat of the interaction.)

Chain of human parkin, full-length, affinity tag cleaved (human) (O60260 whole entry): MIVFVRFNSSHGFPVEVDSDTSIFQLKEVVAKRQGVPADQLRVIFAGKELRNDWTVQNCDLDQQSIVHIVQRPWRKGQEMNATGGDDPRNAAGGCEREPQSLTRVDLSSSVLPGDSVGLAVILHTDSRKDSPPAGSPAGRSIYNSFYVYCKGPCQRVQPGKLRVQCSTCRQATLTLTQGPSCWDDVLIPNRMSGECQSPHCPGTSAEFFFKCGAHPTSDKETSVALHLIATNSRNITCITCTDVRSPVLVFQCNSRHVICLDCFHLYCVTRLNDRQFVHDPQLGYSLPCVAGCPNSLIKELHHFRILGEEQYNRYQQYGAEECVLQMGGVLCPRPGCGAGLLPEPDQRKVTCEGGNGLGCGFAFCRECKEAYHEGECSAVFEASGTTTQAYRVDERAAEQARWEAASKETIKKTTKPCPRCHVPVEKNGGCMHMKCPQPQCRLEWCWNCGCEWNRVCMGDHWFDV

Take “mG2-pUb (mG2-Ub phosphorylated by PINK1 at S65 of its Ub) (from UniProt Q8IXI2 402-582; P0CG63 1-76)”: the Kd was 920 nM and the dH is 9.8 kcal/mol.
The corresponding values for “CISD1-pUb (CISD1-Ub phosphorylated by PINK1 at S65 of its Ub) (from UniProt Q9NZ45 32-108; P0CG63 1-76)” are 450 nM and 7.17 kcal/mol.

One may read the Kd as the free concentration of one partner at which half of the binding sites on the other are occupied at equilibrium, for simple one-to-one binding. A high value points to weaker binding.
